In this assay the target is T1, human PCSK9 (human, UniProt Q8NBP7 31-692).
T1 construct: Soluble analyte in the ForteBio assay; also called human proprotein convertase subtilisin/kexin type 9
The assay can be described thus: ForteBio BLI, biotinylated antibody on streptavidin probes, PCSK9 in solution. On the procedure:
ForteBio affinity assays were implemented according to the prior art. […] After the buffer exchange, the protein content was measured by the absorbance at 280 nm, and the concentration was adjusted to 2 mg/mL. 2 mg of Sulfo-NHS-Biotin was equilibrated to room temperature and added to […] of ultrapure water to give a 10 mM Biotin stock solution. 1 mL of 2 mg/mL JS002 and evolocumab were transferred to a new EP tube, and 8 μL of biotin stock solution was added according to a ratio of protein:biotin=1:6. The mixture was well mixed and incubated at room temperature for 1-2 h. […] After the buffer exchange, the protein content was measured by the absorbance at 280 nm, and the concentration was adjusted to 1-2 mg/mL. The biotinylated protein was aliquoted in tubes at 0.1 mL per tube, and was stored at −80° C. with no more than 1 freeze-thaw. […] The affinity constant was calculated by the formula=koff/kₒₙ.
(In general: Biolayer interferometry detects binding as a change in optical thickness at a sensor tip.)

Drawing on patent US20210393777A1 (SHANGHAI JUNSHI BIOSCIENCES, published 2021), this text covers Kd, koff and kon for two molecules.

B1: evolocumab (antibody, V domains shown)
VH: QVQLVQSGAEVKKPGASVKVSCKASGYTLTSYGISWVRQAPGQGLEWMGWVSFYNGNTNYAQKLQGRGTMTTDPSTSTAYMELRSLRSDDTAVYYCARGYGMDVWGQGTTVTVSS
VL: QSALTQPASVSGSPGQSITISCTGTSSDVGGYNSVSWYQQHPGKAPKLMIYEVSNRPSGVSNRFSGSKSGNTASLTISGLQAEDEADYYCNSYTSTSMVFGGGTKLTVL
Regarding B1, the Kd is 0.651 nM, the koff came out at 3.21e-05 s⁻¹ and the kon turned out to be 49200 M⁻¹ s⁻¹.

B2: JS002 (antibody, human IgG4 S228P, kappa, V domains shown)
VH: QVQLQESGPGLVKPSQTLSLTCTVSGFSISSYGIHWIRQSPGKGLEWIGVIWRGGITDYNAPFMSRVTISKDNSKNQVSFKLSSVTAADTAVYYCANHRDWGQGTLVTVSS
VL: DIQMTQSPSSLSASVGDRVTITCQASQDINKYIDWYQHKPGKAPKLLIHYASTLQPGVPSRFSGSGSGRDYTFTISSLQPEDIATYYCLQYDDLWTFGQGTKVEIKR
notes: Full-length humanized antibody; In the ForteBio assay it was biotinylated with Sulfo-NHS-Biotin (protein:biotin 1:6) and held on streptavidin probes; Tested from various liquid formulations (no. 20, 28-31); also called recombinant humanized anti-PCSK9 monoclonal antibody; anti-PCSK9 antibody
The molecule B2 showed a Kd of 0.0215 nM, a koff of 1.3e-06 s⁻¹ and an on-rate (kon) of 60200 M⁻¹ s⁻¹.

For orientation: Kd means the constant that tells how readily two partners part at equilibrium. A low value points to tighter binding. For orientation: koff means the rate constant with which the complex falls apart. Usually kon stands for the rate constant with which the complex forms. The low end stands for slower complex formation, the high end for faster complex formation.
